According to article PMC13232553:

Target: mPiezo1-ALFA_(2420)-HRV3C-GFP (mouse (printed only as mPiezo1)) (UniProt E2JF22)
Assay: SEC; Superose-6 (10/300 GL) in 150 mM NaCl, 20 mM tris pH 8, 0.025% C12E10, 4°C
Conditions: remark: other sources report otherwise

Substance: mPiezo1-ALFA_(2420)-HRV3C-GFP, E2JF22 1-2547
- stoichiometry N: 3
